In the supplement of paper PMC5998384:

Assays:
[1] = tested on: HeLa Kyoto; assay: solubility change mitosis vs G1/S (difference of NP-40 vs SDS log2 ratios) (log2 ratio difference); higher = more soluble in mitosis
[2] = tested on: HeLa Kyoto; assay: melting temperature (median over replicates), in situ; higher = more thermally stable
[3] = tested on: HeLa Kyoto; assay: thermal stability score vs G1/S (z-score of summed log2 fold changes over temperatures); higher = more thermally stable than in G1/S
[4] = tested on: HeLa Kyoto; assay: solubility in G1/S (NP-40 vs SDS abundance) (log2 ratio); higher = more soluble; settings: cell cycle stage: G1/S
[5] = cell cycle stage: early G1 (4.5 h after nocodazole release)
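For melting temperature (median over replicates), in situ in this document: HeLa Kyoto cells synchronized by double thymidine or nocodazole block, proteins quantified by TMT10plex mass spectrometry, three independent biological replicates.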
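For solubility change mitosis vs G1/S (difference of NP-40 vs SDS log2 ratios) in this document: synchronized HeLa Kyoto cells (double thymidine block for G1/S, nocodazole release for mitosis), protein amounts in NP-40 versus SDS lysates quantified by mass spectrometry, three biological replicates.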
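For solubility in G1/S (NP-40 vs SDS abundance) in this document: HeLa Kyoto cells arrested at G1/S by double thymidine block, proteins quantified by TMT10plex mass spectrometry in mild NP-40 versus SDS extracts, three biological replicates.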
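For thermal stability score vs G1/S (z-score of summed log2 fold changes over temperatures) in this document: synchronized HeLa Kyoto cells, proteins quantified by TMT10plex mass spectrometry, three biological replicates, mitosis taken 0.5 h after nocodazole release, G1/S directly after double thymidine block.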

Sequence: MFSKLAHLQRFAVLSRGVHSSVASATSVATKKTVQGPPTSDDIFEREYKYGAHNYHPLPVALERGKGIYLWDVEGRKYFDFLSSYSAVNQGHCHPKIVNALKSQVDKLTLTSRAFYNNVLGEYEEYITKLFNYHKVLPMNTGVEAGETACKLARKWGYTVKGIQKYKAKIVFAAGNFWGRTLSAISSSTDPTSYDGFGPFMPGFDIIPYNDLPALERALQDPNVAAFMVEPIQGEAGVVVPDPGYLMGVRELCTRHQVLFIADEIQTGLARTGRWLAVDYENVRPDIVLLGKALSGGLYPVSAVLCDDDIMLTIKPGEHGSTYGGNPLGCRVAIAALEVLEEENLAENADKLGIILRNELMKLPSDVVTAVRGKGLLNAIVIKETKDWDAWKVCLRLRDNGLLAKPTHGDIIRFAPPLVIKEDELRESIEIINKTILSF [OAT]
- solubility change mitosis (log2) [1]: -0.168
- melting temperature ([2]; cell cycle stage: G1/S): 52.8 °C
- melting temperature ([2]; cell cycle stage: mitosis): 53 °C
- thermal stability score [3, 5]: 0.897
- thermal stability score ([3]; cell cycle stage: mitosis): -0.508
- solubility in G1/S (log2) [4]: 0.246

Sequence: MFSLDSFRKDRAQHRQRQCKLPPPRLPPMCVNPTPGGTISRASRDLLKEFPQPKNLLNSVIGRALGISHAKDKLVYVHTNGPKKKKVTLHIKWPKSVEVEGYGSKKIDAERQAAAAACQLFKGWGLLGPRNELFDAAKYRVLADRFGSPADSWWRPEPTMPPTSWRQLNPESIRPGGPGGLSRSLGREEEEDEEEELEEGTIDVTDFLSMTQQDSHAPLRDSRGSSFEMTDDDSAIRALTQFPLPKNLLAKVIQIATSSSTAKNLMQFHTVGTKTKLSTLTLLWPCPMTFVAKGRRKAEAENKAAALACKKLKSLGLVDRNNEPLTHAMYNLASLRELGETQRRPCTIQVPEPILRKIETFLNHYPVESSWIAPELRLQSDDILPLGKDSGPLSDPITGKPYVPLLEAEEVRLSQSLLELWRRRGPVWQEAPQLPVDPHRDTILNAIEQHPVVVISGDTGCGKTTRIPQLLLERYVTEGRGARCNVIITQPRRISAVSVAQRVSHELGPSLRRNVGFQVRLESKPPSRGGALLFCTVGILLRKLQSNPSLEGVSHVIVDEVHERDVNTDFLLILLKGLQRLNPALRLVLMSATGDNERFSRYFGGCPVIKVPGFMYPVKEHYLEDILAKLGKHQYLHRHRHHESEDECALDLDLVTDLVLHIDARGEPGGILCFLPGWQEIKGVQQRLQEALGMHESKYLILPVHSNIPMMDQKAIFQQPPVGVRKIVLATNIAETSITINDIVHVVDSGLHKEERYDLKTKVSCLETVWVSRANVIQRRGRAGRCQSGFAYHLFPRSRLEKMVPFQVPEILRTPLENLVLQAKIHMPEKTAVEFLSKAVDSPNIKAVDEAVILLQEIGVLDQREYLTTLGQRLAHISTDPRLAKAIVLAAIFRCLHPLLVVVSCLTRDPFSSSLQNRAEVDKVKALLSHDSGSDHLAFVRAVAGWEEVLRWQDRSSRENYLEENLLYAPSLRFIHGLIKQFSENIYEAFLVGKPSDCTLASAQCNEYSEEEELVKGVLMAGLYPNLIQVRQGKVTRQGKFKPNSVTYRTKSGNILLHKSTINREATRLRSRWLTYFMAVKSNGSVFVRDSSQVHPLAVLLLTDGDVHIRDDGRRATISLSDSDLLRLEGDSRTVRLLKELRRALGRMVERSLRSELAALPPSVQEEHGQLLALLAELLRGPCGSFDVRKTADD [DHX30]
- solubility change mitosis (log2) [1]: 0.218
- melting temperature ([2]; cell cycle stage: G1/S): 51.1 °C
- melting temperature ([2]; cell cycle stage: mitosis): 51.2 °C
- thermal stability score [3, 5]: -0.697
- thermal stability score ([3]; cell cycle stage: mitosis): -0.349
- solubility in G1/S (log2) [4]: -1.02

Sequence: MFSQQQQQQLQQQQQQLQQLQQQQLQQQQLQQQQLLQLQQLLQQSPPQAPLPMAVSRGLPPQQPQQPLLNLQGTNSASLLNGSMLQRALLLQQLQGLDQFAMPPATYDTAGLTMPTATLGNLRGYGMASPGLAAPSLTPPQLATPNLQQFFPQATRQSLLGPPPVGVPMNPSQFNLSGRNPQKQARTSSSTTPNRKDSSSQTMPVEDKSDPPEGSEEAAEPRMDTPEDQDLPPCPEDIAKEKRTPAPEPEPCEASELPAKRLRSSEEPTEKEPPGQLQVKAQPQARMTVPKQTQTPDLLPEALEAQVLPRFQPRVLQVQAQVQSQTQPRIPSTDTQVQPKLQKQAQTQTSPEHLVLQQKQVQPQLQQEAEPQKQVQPQVQPQAHSQGPRQVQLQQEAEPLKQVQPQVQPQAHSQPPRQVQLQLQKQVQTQTYPQVHTQAQPSVQPQEHPPAQVSVQPPEQTHEQPHTQPQVSLLAPEQTPVVVHVCGLEMPPDAVEAGGGMEKTLPEPVGTQVSMEEIQNESACGLDVGECENRAREMPGVWGAGGSLKVTILQSSDSRAFSTVPLTPVPRPSDSVSSTPAATSTPSKQALQFFCYICKASCSSQQEFQDHMSEPQHQQRLGEIQHMSQACLLSLLPVPRDVLETEDEEPPPRRWCNTCQLYYMGDLIQHRRTQDHKIAKQSLRPFCTVCNRYFKTPRKFVEHVKSQGHKDKAKELKSLEKEIAGQDEDHFITVDAVGCFEGDEEEEEDDEDEEEIEVEEELCKQVRSRDISREEWKGSETYSPNTAYGVDFLVPVMGYICRICHKFYHSNSGAQLSHCKSLGHFENLQKYKAAKNPSPTTRPVSRRCAINARNALTALFTSSGRPPSQPNTQDKTPSKVTARPSQPPLPRRSTRLKT [CIZ1]
- solubility change mitosis (log2) [1]: 0.168
- melting temperature ([2]; cell cycle stage: G1/S): 51.5 °C
- melting temperature ([2]; cell cycle stage: mitosis): 53.7 °C
- thermal stability score [3, 5]: 0.59
- thermal stability score ([3]; cell cycle stage: mitosis): 2.85
- solubility in G1/S (log2) [4]: -0.24
